Reference: patent US7179886B1, “Cloning and identification of the motilin receptor” (Merck & Co., Inc., priority 1999, dated 2007)
No end group written: not given here. *: point of attachment. 125I = [125I]*

B1: human motilin (peptide, UniProt P12872 26-47, looked up)
peptide: FVPIFTYGELQRMQEKERNKGQ
B2: canine motilin (peptide, UniProt P19863 1-22, looked up)
peptide: FVPIFTHSELQKIREKERNKGQ
B3: [125I]-Tyr7-human motilin (peptide, UniProt P12872 26-47, looked up)
peptide: FVPIFTY(125I)GELQRMQEKERNKGQ
notes: mature
B4: Leu13 MTL (peptide, UniProt P12872 26-47, looked up)
peptide: FVPIFTYGELQRLQEKERNKGQ
notes: mature; Position 13 counts on the mature peptide, not on the precursor
B5: 1-11 MTL (peptide, UniProt P12872 26-36, looked up)
peptide: FVPIFTYGELQ
notes: range 1-11; The range counts on mature motilin, not on the precursor entry
B6: 1-12 MTL (peptide, UniProt P12872 26-37, looked up)
peptide: FVPIFTYGELQR
notes: range 1-12; The range counts on mature motilin, not on the precursor entry
B7: 1-13 MTL (peptide, UniProt P12872 26-38, looked up)
peptide: FVPIFTYGELQRM
notes: range 1-13; The range counts on mature motilin, not on the precursor entry
B8: 1-19 MTL (peptide, UniProt P12872 26-44, looked up)
peptide: FVPIFTYGELQRMQEKERN
notes: range 1-19; The range counts on mature motilin, not on the precursor entry
B9: 10-22 MTL (peptide, UniProt P12872 35-47, looked up)
peptide: LQRMQEKERNKGQ
notes: range 10-22; The range counts on mature motilin, not on the precursor entry

Assays:
[1] = biological target: T1, Cloned MTL-1A Receptor (human) (Homo sapiens, UniProt O43193); test: [^125I] human motilin binding to crude membranes from HEK-293/aeq17 cells transfected with MTL-R1A cDNA; details: for IC50: competition binding, crude membranes, 20° C. for 1 hr., read-out: [^125I] hmotilin binding (IC50)
T1 construct: The full length open reading frame appears to contain 412 amino acids; expressed in transfected cells; host or cells: HEK-293/aeq17 (293-AEQ17), transient transfection with lipofectamine
T1 sequence (O43193 whole entry): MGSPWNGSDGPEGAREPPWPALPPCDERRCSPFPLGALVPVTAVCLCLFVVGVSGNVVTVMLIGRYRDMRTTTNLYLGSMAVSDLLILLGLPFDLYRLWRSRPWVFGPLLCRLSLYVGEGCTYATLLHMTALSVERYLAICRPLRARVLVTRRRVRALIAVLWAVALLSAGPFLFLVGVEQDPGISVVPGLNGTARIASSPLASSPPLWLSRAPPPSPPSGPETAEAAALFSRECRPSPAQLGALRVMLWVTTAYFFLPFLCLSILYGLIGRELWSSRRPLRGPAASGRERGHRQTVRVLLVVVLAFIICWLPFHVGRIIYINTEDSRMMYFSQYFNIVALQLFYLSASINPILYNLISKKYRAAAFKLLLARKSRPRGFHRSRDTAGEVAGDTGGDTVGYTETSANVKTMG
Protocol: Crude cell membranes were prepared on ice, 48 hrs. post-transfection. […] Bound radioligand was separated by rapid vacuum filtration (Brandel 48-well cell harvester) through GF/C filters pretreated for 1 hr. with 0.5% polyethylenimine.

[2] = biological target: T1, Cloned MTL-1A Receptor (human); test: Aequorin bioluminescence assay in HEK-293/aeq17 cells transfected with MTL-R1A; format: cell-based; details: for EC50: HEK-293/aeq17 cells transfected with human MTL-R1A; for activity in MTL1-A functional and binding assays: high (10 μM) doses, statement covers functional and binding assays
Source text: A high-throughput assay was developed which measures Ca^2+realease with the bioluminescent Ca^2+sensitive-aequorin reporter protein (capable of measuring ligand-induced IP3-coupled mobilization of intracellular calcium and concomitant calcium-induced aequorin bioluminescence). […] The DNA and deduced amino acid sequence are given in SEQ. ID. NO.:2 and SEQ. ID. NO.:3, respectively.
To identify a ligand for this orphan GPCR and to determine whether the full length, 7 TM domain GPR38-A is a functional GPCR, a high-throughput assay was developed which measures Ca^2+ release with the bioluminescent Ca^2+ sensitive aequorin reporter protein (capable of measuring ligand-induced IP3-coupled mobilization of intracellular calcium and concomitant calcium-induced aequorin bioluminescence).
A broad set of peptide and non-peptide molecules was tested at a single concentration in transiently transfected HEK-293/aeq17 cells (100 nM peptide, 10 μM non-peptide).
The aequorin bioluminescence assay is a reliable test for identifying G protein-coupled receptors which couple through the Gα protein subunit family consisting of Gq and G11 which leads to the activation of phospholipase C, mobilization of intracellular calcium and activation of protein kinase C. Measurement of MTL-1A expression in the aequorin-expressing stable reporter cell line 293-AEQ17 (Button, D. et. al., 1993 Cell Calcium 14: p. 663–671.) was performed using a Luminoskan RT luminometer (Labsystems Inc., Gaithersburg, Md.).
293-AEQ17 cells (8×10^5 cells plated 18 hrs. before transfection in a T75 flask) were transfected with 22 μg of human MTL-R1A plasmid DNA: 264 μg lipofectamine. Following approximately 40 hours of expression the apo-aequorin in the cells was charged for 4 hours with coelenterazine (10 μM) under reducing conditions (300 μM reduced glutathione) in ECB buffer (140 mM NaCl, 20 mM KCl, 20 mM HEPES—NaOH [pH=7.4], 5 mM glucose, 1 mM MgCl2, 1 mM CaCl2, 0.1 mg/ml bovine serum albumin). The cells were harvested, washed once in ECB medium and resuspended to 500,000 cells/ml. 100 μl of cell suspension (corresponding to 5×10^4 cells) was then injected into the test plate, and the integrated light emission was recorded over 30 seconds, in 0.5 second units. 20 μL of lysis buffer (0.1% final Triton X-100 concentration) was then injected and the integrated light emission recorded over 10 seconds, in 0.5 second units. The “fractional response” values for each well were calculated by taking the ratio of the integrated response to the initial challenge to the total integrated luminescence including the Triton X-100 lysis response.

[3] = system: cells that were not transfected with the MTL-R1A cDNA expression vector; test: Aequorin bioluminescence assay in non-transfected cells; format: cell-based, human; details: concentrations as high as 10 μM
[4] = biological target: T2, motilin receptor spliced form A (MTL-R1A), human (human, UniProt O43193 1-412); test: cell-based or functional assay
T2 sequence (O43193 whole entry, canonical isoform): as the sequence (O43193 whole entry) above

[5] = biological target: T2, motilin receptor spliced form A …; test: cell-based or functional assay; remark: listed apart in the source
[6] = biological target: T2, motilin receptor spliced form A …; test: direct radioligand binding on cell membranes from transfected cells
[7] = biological target: T2, motilin receptor spliced form A …; test: displacement of [125I] human motilin from crude membranes of MTL-R1A transfected HEK-293/aeq17 cells
Protocol: Crude cell membranes were prepared on ice, 48 hrs. post-transfection. Each T-75 flask was washed twice with 10 ml of PBS, once with 1 ml homogenization buffer (50 mM Tris-HCl [pH 7.4], 10 mM MgCl_2. 10 ml of homogenization buffer was added to each flask, cells were removed by scraping and then homogenized using a Polytron device (Brinkmann, Syosset, N.Y.; 3 bursts of 10 sec. at setting 4). The homogenate was centrifuged for 20 min. at 11,000×g at 0° C. and the resulting crude membrane pellet (chiefly containing cell membranes and nuclei) was resuspended in homogenization buffer supplemented with 1.5% BSA (0.5 ml T75 flask) and kept on ice.
Bound radioligand was separated by rapid vacuum filtration (Brandel 48-well cell harvester) through GF/C filters pretreated for 1 hr. with 0.5% polyethylenimine. After application of the membrane suspension to the filter, the filters were washed 3 times with 3 ml each of ice-cold 50 mM Tris-HCl [pH 7.4], 10 mM MgCl_2, and the bound radioactivity on the filters was quantitated by gamma counting. […] Competition binding data were analyzed by a non-linear curve-fitting program (Prism V, version 2.0; GraphPad Software, San Diego, Calif.).

Molecule | Aequorin Assay (EC50 nM) [5] | IC50 [7] | also measured
Nc1nc2c(ncn2[C@@H]2O[C@H](COP(=O)(O)OP(=O)(O)OP(O)(O)=S)[C@@H](O)[C@H]2O)c(=O)[nH]1 [GTPγS] | – | – | inhibition of [^125I] human motilin binding ([1]; 100 nM GTPγS): > 80%
COc1cc(N)c(Cl)cc1C(=O)NC1CCN(CCCOc2ccc(F)cc2)CC1OC (centres unmarked) [cisapride] | – | – | EC50 [2]: > 10000 nM; activity in MTL1-A functional and binding assays [2]: inactive; IC50 [1]: > 10000 nM
CC[C@H](C)[C@H](NC(=O)[C@@H]1CCCN1C(=O)[C@@H](NC(=O)[C@@H](N)Cc1ccccc1)C(C)C)C(=O)N[C@@H](Cc1ccccc1)C(=O)N[C@H](C(=O)N[C@@H](Cc1ccc(O)cc1)C(=O)NCC(=O)N[C@@H](CCC(=O)O)C(=O)N[C@@H](CC(C)C)C(=O)N[C@@H](CCC(N)=O)C(=O)N[C@@H](CCCNC(=N)N)C(=O)N[C@@H](CCSC)C(=O)N[C@@H](CCC(N)=O)C(=O)N[C@@H](CCC(=O)O)C(=O)N[C@@H](CCCCN)C(=O)N[C@@H](CCC(=O)O)C(=O)N[C@@H](CCCNC(=N)N)C(=O)N[C@@H](CC(N)=O)C(=O)N[C@@H](CCCCN)C(=O)NCC(=O)N[C@@H](CCC(N)=O)C(=O)O)[C@@H](C)O [human motilin] | – | – | bioluminescent response in non-transfected cells [3]: no bioluminescent response above background levels
CCN(CC)CCNC(=O)c1cc(Cl)c(N)cc1OC [metoclopramide] | – | – | EC50 [2]: > 10000 nM; activity in MTL1-A functional and binding assays [2]: inactive; IC50 [1]: > 10000 nM
CC[C@H]1OC(=O)[C@H](C)[C@@H](O[C@H]2C[C@@](C)(OC)[C@@H](O)[C@H](C)O2)[C@H](C)[C@@H](O[C@@H]2O[C@H](C)C[C@H](N(C)C)[C@H]2O)[C@](C)(O)C[C@@H](C)/C(=N\OCOCCOC)[C@H](C)[C@@H](O)[C@]1(C)O [roxithromycin] | – | – | EC50 [2]: 1950 nM; IC50 [1]: 613 nM
FVPIFTHSELQKIREKERNKGQ [canine motilin] | – | – | IC50 [1]: 0.2 nM
B1 | – | – | bioluminescent response (aequorin assay, 100 nM peptide, transfected HEK-293/aeq17 cells) [4]: > 4 fold over background
B2 | 4.4 nM | – | –
B3 | – | – | Kd [6]: 0.1 nM
B4 | 3.9 nM | 0.2 nM | –
B5 | 138 nM | 127 nM | –
B6 | 72 nM | 14 nM | –
B7 | 3.8 nM | 0.9 nM | –
B8 | 4.1 nM | 0.3 nM | –
B9 | > 10000 nM | 1100 nM | –
